Assays:
[1] = molecular target: ^MNMATα2f (wild-type full-length MATα2, C-terminally flag-tagged) (S. cerevisiae) (UniProt P0CY08); experiment: cell-based or functional assay
[2] = molecular target: T1, Doa10myc13 (full-length, C-terminally myc13-tagged S. cerevisiae Doa10 E3 Ub ligase) (S. cerevisiae, UniProt P40318 1-1319); experiment: X-peptide pulldown from yeast extract, anti-myc immunoblot
T1 construct: mature; also called mycn-tagged Doa10; Doa10men
T1 sequence (looked up): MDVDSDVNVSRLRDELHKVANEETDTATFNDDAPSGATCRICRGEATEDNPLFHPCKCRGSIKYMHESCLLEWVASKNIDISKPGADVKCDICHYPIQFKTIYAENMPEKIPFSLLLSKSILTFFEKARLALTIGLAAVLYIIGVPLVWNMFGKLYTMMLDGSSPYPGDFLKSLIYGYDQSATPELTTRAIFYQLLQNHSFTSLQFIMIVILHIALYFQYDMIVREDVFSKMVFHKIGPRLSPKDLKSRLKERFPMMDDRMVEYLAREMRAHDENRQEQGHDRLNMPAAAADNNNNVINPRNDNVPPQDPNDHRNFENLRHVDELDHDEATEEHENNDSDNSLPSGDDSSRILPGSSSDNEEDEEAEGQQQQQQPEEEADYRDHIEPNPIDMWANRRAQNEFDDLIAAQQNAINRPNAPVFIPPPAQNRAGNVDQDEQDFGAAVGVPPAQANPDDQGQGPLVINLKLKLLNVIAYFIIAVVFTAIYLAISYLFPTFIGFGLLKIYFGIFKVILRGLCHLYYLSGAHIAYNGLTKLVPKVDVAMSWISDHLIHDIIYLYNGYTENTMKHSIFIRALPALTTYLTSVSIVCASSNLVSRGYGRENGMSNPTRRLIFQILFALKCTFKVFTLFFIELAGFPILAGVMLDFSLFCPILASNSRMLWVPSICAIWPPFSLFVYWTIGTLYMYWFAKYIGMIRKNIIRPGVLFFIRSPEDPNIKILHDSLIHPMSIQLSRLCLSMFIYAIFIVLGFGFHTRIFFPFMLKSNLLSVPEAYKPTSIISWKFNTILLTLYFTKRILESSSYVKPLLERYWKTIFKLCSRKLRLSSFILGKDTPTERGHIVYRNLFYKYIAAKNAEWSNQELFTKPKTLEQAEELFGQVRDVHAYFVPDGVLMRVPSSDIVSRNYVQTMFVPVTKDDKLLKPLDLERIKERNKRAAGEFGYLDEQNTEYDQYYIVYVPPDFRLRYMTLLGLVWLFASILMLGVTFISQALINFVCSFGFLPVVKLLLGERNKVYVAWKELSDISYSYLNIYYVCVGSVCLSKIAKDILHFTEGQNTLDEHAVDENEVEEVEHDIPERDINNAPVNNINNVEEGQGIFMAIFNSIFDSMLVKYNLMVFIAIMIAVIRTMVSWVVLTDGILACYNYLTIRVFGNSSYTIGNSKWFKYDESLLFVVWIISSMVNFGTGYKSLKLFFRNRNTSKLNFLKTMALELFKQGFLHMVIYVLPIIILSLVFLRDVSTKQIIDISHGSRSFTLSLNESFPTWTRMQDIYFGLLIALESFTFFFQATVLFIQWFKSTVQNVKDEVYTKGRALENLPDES

## Doa10 E3 Ub ligase (endogenous, S. cerevisiae) (from UniProt P40318 1-1319)
[1]
  level of MATα2f at 0 min (end of pulse) in wild-type cells relative to doa10Δ cells (100%), Ub-reference ^35S-pulse-chase: 55%

## Doa10 E3 Ub ligase (endogenous, S. cerevisiae) (from UniProt P40318 1-1319) (enzyme)
[1]
  in vivo half-life of ^MNMATα2f, ^35S-pulse-chase, doa10Δ ubc4Δ cells (Doa10 absent): 35 min
  in vivo half-life of ^MNMATα2f, ^35S-pulse-chase, ubc4Δ cells (Doa10 present): 9 min

B1: synthetic peptide XIFSTDTGPGGC with X=Phe (peptide)
peptide: FIFSTDTGPGGC
notes: also called nsP4-derived control peptide (X=Phe)
[2]
  binding result: no binding

B2: synthetic peptide XIFSTDTGPGGC with X=Met (peptide)
peptide: MIFSTDTGPGGC
notes: also called nsP4-derived control peptide (X=Met)
[2]
  binding result: no binding

B3: synthetic peptide XIFSTDTGPGGC with X=Arg (peptide)
peptide: RIFSTDTGPGGC
notes: also called nsP4-derived control peptide (X=Arg)
[2]
  binding result: no binding
